Laboratory results reported in publication PMC10192418, “High-affinity peptides developed against calprotectin and their application as synthetic ligands in diagnostic assays” (Nature Communications, 2023).

B1: linear peptide 3 [modified: 5(6)-carboxyfluorescein on the N-terminus; 5(6)-carboxyfluorescein on the N-terminus] / B-RCAL (BÜHLMANN recombinant calprotectin; His6-linker-S100A9-linker-S100A8) [human] (parent)
chain 1: RSPESVAFPMFQSHWYSG
chain 2: MTCKMSQLERNIETIINTFHQYSVKLGHPDTLNQGEFKELVRKDLQNFLKKENKNEKVIEHIMEDLDTNADKQLSFEEFIMLMARLTWASHEKMHEGDEGPGHHHKPGLGEGTPLEVLFQGPMLTELEKALNSIIDVYHKYSLIKGNFHAVYRDDLKKLLETECPQYIRKKGADVWFKELDINTDGAVNFQEFLILVIKMGVAAHKKSHEESHKE

Variants of: B1
Experiment: fluorescence polarisation
Conditions: with B-RCAL (BÜHLMANN recombinant calprotectin; His6-linker-S100A9-linker-S100A8) [human]; one measurement

Question: chain 1 A7G was tested. Which Kd did it give?
Answer: 29 nM

Question: With chain 1 P3A as the variant, how does the Kd read?
Answer: 28 nM

Question: chain 1 Q12A was tested. Which Kd did it give?
Answer: 27 nM

Question: chain 1 R1A was tested. Which Kd did it give?
Answer: 32 nM

Question: For chain 1 V6A, which Kd is on record?
Answer: 39 nM
